Measurements: patent US20250313631A1 (HUMMINGBIRD BIOSCIENCE PTE, published 2025)
Like-named read-outs stand apart in the source and are kept apart here.

How the values were obtained:
[1] = biological target: T1, recombinant human VISTA (His-tagged) (human, UniProt Q9H7M9 33-194); assay: ELISA, plate coated with human VISTA; unit nM from the legend paragraph 699
T1 construct: bought soluble protein (Sino Biological); also called hVISTA; human VISTA polypeptide

[2] = biological target: T1, recombinant human VISTA (His-tagged); assay: BLI (Octet), 1:1 global fit, His-tagged human VISTA captured
[3] = biological target: T2, recombinant mouse VISTA (His-tagged) (mouse, UniProt Q9D659 33-191); assay: BLI (Octet), 1:1 global fit, His-tagged mouse VISTA captured
T2 construct: also called murine VISTA; mVISTA
T2 sequence (looked up): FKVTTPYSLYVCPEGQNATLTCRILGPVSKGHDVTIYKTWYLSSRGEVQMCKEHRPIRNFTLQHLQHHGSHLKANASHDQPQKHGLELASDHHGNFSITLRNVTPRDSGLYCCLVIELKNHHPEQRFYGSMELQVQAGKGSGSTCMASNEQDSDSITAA

[4] = biological target: T1, recombinant human VISTA (His-tagged); assay: ELISA, plate coated with human VISTA; unit nM from the legend paragraph 697
[5] = biological target: T2, recombinant mouse VISTA (His-tagged); assay: BLI (Octet), 1:1 global fit, mouse VISTA captured
Protocol: All measurements were performed at 25° C. with agitation at 1000 rpm. […] Sensograms were referenced for buffer effects and then fitted using the Octet QK384 user software (Pall ForteBio, USA).

[6] = biological target: T1, recombinant human VISTA (His-tagged); assay: ELISA, plate coated with human VISTA; unit nM from the legend paragraph 698
[7] = biological target: T2, recombinant mouse VISTA (His-tagged); assay: ELISA, plate coated with mouse VISTA; unit nM from the legend paragraph 699
[8] = biological target: T2, recombinant mouse VISTA (His-tagged); assay: BLI (Octet), 1:1 global fit, His-tagged mouse VISTA captured; remark: listed apart in the source
[9] = biological target: T2, recombinant mouse VISTA (His-tagged); assay: ELISA, plate coated with mouse VISTA; unit nM from the legend paragraph 697
[10] = biological target: T1, recombinant human VISTA (His-tagged); assay: BLI (Octet), 1:1 global fit, human VISTA captured
Protocol: (§1) Finally, the biosensors were incubated for 120 sec in PBS pH 7.2 to obtain the dissociation curves. Kinetic and affinity constants were calculated by global fitting of the association and dissociation data to a 1:1 binding model.

[11] = biological target: T2, recombinant mouse VISTA (His-tagged); assay: ELISA, plate coated with mouse VISTA; unit nM from the legend paragraph 698
human PD-L1 [12] = biological target: T3, human PD-L1 (human, UniProt Q9NZQ7 19-239); assay: BLI (Octet), His-tagged human PD-L1 on anti-Penta-HIS biosensor, antibody 500-15.6 nM
T3 construct: captured through a His tag in the BLI experiments; also called hPD-L1; B7H1/PDL-1
Protocol: as §1

[13] = biological target: T4, human VISTA expressed on cells (human, UniProt Q9H7M9 33-311); assay: flow cytometry, FITC anti-Fc detection; HEK293 cells overexpressing human VISTA against HEK293 cells without VISTA
T4 construct: also called HEK293 VISTA O/E; HEK293T or HEK293-6E cells overexpressing human VISTA
Protocol: (§2) The cells were washed thrice with FACS buffer (PBS with 5 mM EDTA and 0.5% BSA) and resuspended in FITC-conjugated anti-FC antibody (Invitrogen, USA) for 40 min at 2-8° C. Cells were washed again and resuspended in 200 μL of FACS flow buffer (PBS with 5 mM EDTA) for flow cytometric analysis using MACSQuant 10 (Miltenyi Biotec, Germany). After acquisition, all raw data were analyzed using Flowlogic software. Cells were gated using forward and side scatter profile and Median of Fluorescence Intensity (MFI) value was determined for native and overexpressing cell populations.

[14] = biological target: T4, human VISTA expressed on cells; assay: flow cytometry, FITC anti-Fc detection; HEK293 VISTA O/E against HEK293
Protocol: as §2

[15] = biological target: T1, recombinant human VISTA (His-tagged); assay: competition ELISA: VSIG-3 coated, His-tagged VISTA added with the antibody, anti-His-HRP; blocked ligand VSIG-3
Protocol: Briefly, 96-well plates (Nunc, Denmark) were coated with 1 μg/ml of untagged or Fc-tagged VSIG-3 (R&D Systems, USA) in 1×PBS for 16 h at 4° C. […] Plates were subsequently washed three times with TBS-T and incubated with an HRP-conjugated anti-his secondary antibody for 1 h at room temperature. After washing, plates were developed with colorimetric detection substrate Turbo-TMB (Pierce, USA).

human PD-L1 [16] = biological target: T3, human PD-L1; assay: ELISA, target protein coated, absorbance 450 nm
[17] = biological target: T2, recombinant mouse VISTA (His-tagged); assay: ELISA, target protein coated, absorbance 450 nm
[18] = biological target: T1, recombinant human VISTA (His-tagged); assay: ELISA, target protein coated, absorbance 450 nm
[19] = biological target: T2, recombinant mouse VISTA (His-tagged); assay: ELISA, target protein coated, absorbance 450 nm; remark: listed apart in the source
[20] = biological target: T1, recombinant human VISTA (His-tagged); assay: ELISA, target protein coated, absorbance 450 nm; remark: listed apart in the source

T3 sequence (Q9NZQ7 19-239 limits assumed): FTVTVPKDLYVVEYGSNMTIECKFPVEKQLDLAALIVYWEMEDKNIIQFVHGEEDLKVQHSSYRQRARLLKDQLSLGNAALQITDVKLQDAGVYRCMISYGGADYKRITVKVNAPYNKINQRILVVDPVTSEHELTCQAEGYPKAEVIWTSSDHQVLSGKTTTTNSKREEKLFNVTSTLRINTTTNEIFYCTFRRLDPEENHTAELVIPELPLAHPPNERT

B1: anti-VISTA clone V4-C1 IgG1 (antibody, V domains shown)
VH: QVQLQESGPGLVKPSDTLSLTCTVSGYSITSDYAWNWIRQTPGKGLEWIGYITYSGYISYNPSLRSRVTISRDTSKNQFSLKLSSVTAADTAVYSCARALYYPWYFDVWGTGTTVTVSS
VL: EIVITQSPATLSLSPGERATLSCRASSSVGYIHWYQQKPGQAPRPLIYATSNRATGIPARFSGSGSGTDNTLTISSLEPEDSAVYYCQQWSSYPPITFGGGTKLEVKR
With B1 the EC50 [1] was 0.065 nM, the Kd [2] was < 0.001 nM and the koff [2] was < 1e-07 s⁻¹. The kon [2] was 343000 M⁻¹ s⁻¹, the Kd [3] was 60.7 nM and the koff [3] was 0.0147 s⁻¹. For the same binder, the kon [3] was 243000 M⁻¹ s⁻¹, the EC50 [4] was 0.0024 nM and the Kd [5] was 58.5 nM. The koff [5] was 0.0162 s⁻¹, the kon [5] was 277000 M⁻¹ s⁻¹ and the EC50 [6] was 0.042 nM. For the same binder, the EC50 [7] was 2.44 nM, the Kd [8] was 66.7 nM and the koff [8] was 0.022 s⁻¹. For the same binder, the kon [8] was 330000 M⁻¹ s⁻¹, the EC50 [9] was 3.1 nM and the Kd [10] was < 0.001 nM. For the same binder, the koff [10] was < 1e-07 s⁻¹, the kon [10] was 391000 M⁻¹ s⁻¹ and the EC50 [11] was 1.6 nM. B1: no binding (tested: 500 nM) (human PD-L1 [12]).

B2: anti-VISTA clone V4-C9 IgG1 (antibody, V domains shown)
VH: QVQLQESGPGLVKPSDTLSLTCTVSGYSITSDYAWNWIRQTPGKGLEWIGYITYSGYVSYNPSLRSRVTISRDTSKNQFSLKLSSVTAADTAVYSCARALYYPWYFDVWGTGTTVTVSS
VL: EIVLTQSPATLSLSPGERATLSCRASSSVGYIHWYQQKPGQAPRPLIYATSNRATGIPARFSGSGSGTDNTLTISSLEPEDSAVYYCQQWSSYPPITFGGGTKLEVKR
For B2, the EC50 [1] was 0.107 nM, the Kd [2] was < 0.001 nM and the koff [2] was < 1e-07 s⁻¹. The kon [2] was 333000 M⁻¹ s⁻¹, the Kd [3] was 3.81 nM and the koff [3] was 0.00118 s⁻¹. For the same binder, the kon [3] was 311000 M⁻¹ s⁻¹, the EC50 [4] was 0.031 nM and the Kd [5] was 2.88 nM. It also gave a koff [5] of 0.00104 s⁻¹, a kon [5] of 361000 M⁻¹ s⁻¹ and an EC50 [6] of 0.03 nM. The EC50 [7] was 0.18 nM, the Kd [8] was 4.26 nM and the koff [8] was 0.00067 s⁻¹. The kon [8] was 157000 M⁻¹ s⁻¹, the EC50 [9] was 0.11 nM and the Kd [10] was 0.125 nM. It also gave a koff [10] of 5.6e-05 s⁻¹, a kon [10] of 450000 M⁻¹ s⁻¹ and an EC50 [11] of 0.044 nM. B2: no binding (tested: 500 nM) (human PD-L1 [12]).

B3: anti-VISTA clone 4M2-D5 IgG1 (antibody, V domains shown)
VH: QVQLQQSGAELARPGASVRMSCKASGYTFTSYTMNWVKQRPGQGLEWIGFINPDSDYTTYDQKFKDKATLTADSSSSTAYMQLSSLTYDDSAVYYCTRHSYGNYGDYWGQGTTLTVSS
VL: DIVLTQSPKFLLVSAGDRVTITCKASQSVTNDVAWYQQKPGQSPKLLIYYASSRYTGVPDRFTGSGFGTDFTFTINTVQAEDLAVYFCQQDYSSPYTFGGGTKLEIKR
B3: binds [13].

B4: anti-VISTA clone 5M1-A11 IgG1 (antibody, V domains shown)
VH: QVTLKVSGPGILQPSQTLSLTCSFSGFSLSTSGMGVSWIRQPSGKGLEWLAHIYWDDDKRYNPSLKSRLTISKDSSSNQVFLKITSVDTADTATYYCARRLDGYNDPYYFDYWGQGTTLTVSS
VL: DVVMTQTPALMSASPGEKVTMTCSASSSVSYMYWYQQKPRSSPKPWIYLTSNLASGVPARFSGSGSGTSYSLTISSMEAEDAATYYCQQWNSNPYTFGGGTKLEIKR
B4: binds [14]; binds [15].

B5: anti-VISTA clone 13D5-1 IgG1 (antibody, V domains shown)
VH: QVQLQQSGAELVRPGTSVKISCKASGYTFTNYWLGWVKQRPGHGLEWIGDIYPGGGYTNYNEKFKGKATLTADTSSSTAYMQLSSLTSEDSAVYFCVRSGYYYGSSWYFDVWGAGTTVTVSS
VL: DVLMTQTPLSLPVSLGDQASISCRSSQSIVHSSGNTYLEWYLQKPDQSPKLLIYKVSNRFSGVPDRFSGSGSGTDFTLKISRVEAEDLGVYYCFQGSHVPPTFGGGTKLEIKR
B5: binds (human PD-L1 [16]); binds [17]; binds [18].

B6: anti-VISTA clone 13D5-13 IgG1 (antibody, V domains shown)
VH: QVQLQQSGAELVRPGTSVKISCKASGYTFTNYWLGWVKQRPGHGLEWIGDIYPGGGYTNYNEKFKGKATLTADISSSTAYMQLSSLTSEDSADYFCVRGGYYYGSSWYFDVWGAGTTVTVSS
VL: DVLMTQTPLSLPVSLGDQASISCRSSQSTVHSIGNTYLEWYLQKPGQSPKLLIYKVSNRFSGVPDRFSGSESGTDFTLKISRVEAEDLGVYYCFQGSHVPPTFGGGTKLEIKR
B6: binds [19]; binds [20].

B7: anti-VISTA clone 2M1-B12 IgG1 (antibody)
heavy: not shown
light: DIQMMQSPASLSASVGETVAITCGASENIYGALNWYQRKQGKSPQLLIYGATNLADGMSSRFSGSGSGRQYSLKISSLHPDDVATYYCQNVLSTPYTFGGGTKLEIKRTVAAPSVFIFPPSDEQLKSGTASVVCLLNNFYPREAKVQWKVDNALQSGNSQESVTEQDSKDSTYSLSSTLTLSKADYEKHKVYACEVTHQGLSSPVTKSFNRGEC
B7: binds [14].

B8: anti-VISTA clone 2M1-D2 IgG1 (antibody)
heavy: not shown
light: DIVMTQSPASLSASVGETVAITCGASENIYGALNWYQRKQGKSPQLLIYGATNLADGMSSRFSGSGSGRQYSLKISSLHPDDVATYYCQNVLSTPYTFGGGTKLEIKRTVAAPSVFIFPPSDEQLKSGTASVVCLLNNFYPREAKVQWKVDNALQSGNSQESVTEQDSKDSTYSLSSTLTLSKADYEKHKVYACEVTHQGLSSPVTKSFNRGEC
B8: binds [14].

B9: anti-VISTA clone 4M2-C9 IgG1 (antibody, V domains shown)
VH: QVTLKECGPGILQPSQTLSLTCSFSGFSLSTSGMGVSWIRQPSGKGLEWLAHIYWDDDKRYNPSLKSRLTISKDSSSNQVFLKITSVDTADTATYYCARRLDGYNDPYYFDYWGQGTTLTVSS
VL: DIVMTQSPSSLSASLGDTVTITCHASQNVNVWLSWYQQKPGNIPKLLIYKASNLHAGVPSRFSGSGSGTGFTLTISSLQPEDIATYYCQQGQSYPLTFGGGTKLEIKR
B9: binds [14].

B10: anti-VISTA clone 4M2-D9 IgG1 (antibody, V domains shown)
VH: EVQLQESGPGLVKPSQSLSLTCTVTGYSITSDYAWNWIRQFPGNRLEWMGFISYSGFTTYSPSLESRISITRDTSKNQFFLQLISVTTEDTATYYCARNHYGGSYWYFDVWGAGTSVTVSS
VL: DIVMTQSPGSLAVSLGQRATISCRASESVEYYGTSLMQWYLQKPGQPPKLLIYAASNVESGVPDRFRGSGSGTDFSLNIHPVEEDDIAMYFCQQSRKVPWTFGGGTKLEIKR
B10: binds [14].

B11: anti-VISTA clone 1M2-D2 IgG1 (antibody, V domains shown)
VH: EVKVEESGGGLVQPGGSMKLSCAASGFTFSDAWMDWVHQSPEKGLEWVAEIRSKANNHATYYVESVEGRFTISRDDSKSSVFLQVNSLRPEDTGIYYCTRRDGYYFAYWGQGTLVTVSA
VL: DIVLTQSPAIMSASLGEEITLTCSASSSVRDMHWYQQKSGTSPKVLIYNTFNLASGVPSRFSGSGSGTFYSLTISSVEAGDAAAYYCHQWSSYPTFGGGTKLEIKR
B11: binds [14].

B12: anti-VISTA clone 4M2-A8 IgG1 (antibody, V domains shown)
VH: QVQLQQSGADLARPGASVKMSCKASGYTFIDYTVHWVKQRPGQGLEWIGFINPSNDYTSYNQKFKDKASLTADTSSTTAYMQLSSLTSDDSAVYYCARHSYGNYGDYWGQGTTLTVSS
VL: DIVMTQAPKFLLVSAGDRVTITCKASQSVTNGVAWYQQKPGQSPKLLIYYASNRYTGVPDRFTGSGFGTDFTFTISTVQAEDLAVYFCQQDYSSPYTFGGGTKLEIKR
B12: binds [14].
